± gives the standard deviation of the averaged measurements.
What was measured:
[1] = test system: Saccharomyces cerevisiae; assay: protein stability index of tFT-peptide fusion (C-terminal peptide) (PSI (0-1 scale)); higher = more stable (slower turnover); conditions: genetic background: wild type; temperature: 30 C
[2] = test system: Saccharomyces cerevisiae; assay: as above
Procedure: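 MPS profiling in S. cerevisiae of the tFT-X12 degron library: putative degron peptides plus stable controls, 12 aa, fused to the C-terminus of a sfGFP-mCherry timer. Cells are FACS-sorted into 8 mCherry/sfGFP bins and deep-sequenced. PSI runs from 0 (unstable) to 1 (stable). Backgrounds are wild type, das1Δ and doa10Δ at 30 °C, and wild type, das1Δ, cdc34-1 and cdc53-1 at 37 °C; 2-3 technical replicates each.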

[3] = genetic background: cdc34-1, temperature: 37 C
[4] = genetic background: cdc53-1, temperature: 37 C
[5] = genetic background: das1 deletion, temperature: 30 C
[6] = genetic background: das1 deletion, temperature: 37 C
[7] = genetic background: doa10 deletion, temperature: 30 C
[8] = genetic background: wild type, temperature: 30 C
[9] = genetic background: wild type, temperature: 37 C
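Also: PSI is a weighted mean of sequencing reads over stability bins, variants kept only with over 10 reads, mCherry proximal and sfGFP distal, peptide attached via GGGS linker.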

Row | Sequence | protein stability index [1] | protein stability index [2, 3] | protein stability index [2, 4] | protein stability index [2, 5] | protein stability index [2, 6] | protein stability index [2, 7] | protein stability index [2, 8] | protein stability index [2, 9]
1 | TLCHLTLICVRE | 0.382 ± 0.027 | 0.221 ± 0.0099 | 0.253 ± 0.018 | 0.226 ± 0.019 | 0.358 ± 0.011 | 0.1767 ± 0.00029 | 0.21 ± 0.018 | 0.336 ± 0.012
2 | FLFFCGWVSLFG | 0.424 ± 0.024 | 0.408 ± 0.024 | 0.4636 ± 0.0024 | 0.394 ± 0.033 | 0.4966 ± 0.0014 | 0.333 ± 0.0056 | 0.364 ± 0.023 | 0.479 ± 0.025
3 | TVILVLFPSPFL | 0.51 ± 0.021 | 0.589 ± 0.036 | 0.679 ± 0.012 | 0.472 ± 0.037 | 0.671 ± 0.023 | 0.448 ± 0.014 | 0.484 ± 0.01 | 0.597 ± 0.017
4 | FFRFCFLLLASS | 0.25 ± 0.061 | 0.303 ± 0.011 | 0.335 ± 0.01 | 0.221 ± 0.024 | 0.4 ± 0.01 | 0.197 ± 0.019 | 0.188 ± 0.013 | 0.355 ± 0.011
5 | FVVVCWFWGGGF | 0.425 ± 0.026 | 0.3213 ± 0.0031 | 0.406 ± 0.0042 | 0.283 ± 0.036 | 0.465 ± 0.013 | 0.257 ± 0.012 | 0.27 ± 0.048 | 0.429 ± 0.021
6 | LVLLRLSSLTIF | 0.404 ± 0.0068 | 0.627 ± 0.01 | 0.699 ± 0.0095 | 0.561 ± 0.018 | 0.707 ± 0.012 | 0.269 ± 0.011 | 0.314 ± 0.011 | 0.549 ± 0.034
7 | SRVSEFVIPLGR | 0.719 ± 0.033 | 0.7038 ± 0.0057 | 0.7389 ± 0.0046 | 0.622 ± 0.018 | 0.7555 ± 0.0021 | 0.644 ± 0.023 | 0.6473 ± 0.0059 | 0.71 ± 0.016
8 | DECQLCNRDWRG | 0.7185 ± 0.0063 | 0.689 ± 0.069 | 0.739 ± 0.013 | 0.634 ± 0.015 | 0.726 ± 0.019 | 0.644 ± 0.032 | 0.657 ± 0.042 | 0.733 ± 0.018
9 | GCVLVFFLRLDL | 0.49 ± 0.072 | 0.4328 ± 0.0006 | 0.538 ± 0.067 | 0.354 ± 0.034 | 0.557 ± 0.034 | 0.3466 ± 0.0014 | 0.365 ± 0.0072 | 0.562 ± 0.01
10 | CFVWFSVVLLFA | 0.194 ± 0.0056 | 0.109 ± 0.015 | 0.159 ± 0.0066 | 0.134 ± 0.028 | 0.227 ± 0.0053 | 0.136 ± 0.0019 | 0.117 ± 0.016 | 0.202 ± 0.014
11 | FFVSFFFFLWLV | 0.228 ± 0.0027 | 0.204 ± 0.011 | 0.181 ± 0.024 | 0.204 ± 0.011 | 0.261 ± 0.014 | 0.278 ± 0.038 | 0.161 ± 0.018 | 0.189 ± 0.015
12 | RMCPWVSVRVGV | 0.485 ± 0.0071 | 0.558 ± 0.028 | 0.5891 ± 0.0027 | 0.382 ± 0.036 | 0.5922 ± 0.0023 | 0.3537 ± 0.0019 | 0.391 ± 0.013 | 0.5825 ± 0.00065
13 | DALHPCIIYLTC | 0.341 ± 0.013 | 0.594 ± 0.049 | 0.565 ± 0.015 | 0.328 ± 0.035 | 0.609 ± 0.00096 | 0.217 ± 0.0055 | 0.254 ± 0.022 | 0.466 ± 0.013
14 | GSVLWISCLIFC | 0.3 ± 0.026 | 0.157 ± 0.019 | 0.267 ± 0.0085 | 0.189 ± 0.035 | 0.349 ± 0.0061 | 0.1641 ± 0.0013 | 0.18 ± 0.027 | 0.347 ± 0.038
15 | LWGVGRQRNIAS | 0.41 ± 0.013 | 0.684 ± 0.033 | 0.758 ± 0.015 | 0.655 ± 0.038 | 0.769 ± 0.021 | 0.291 ± 0.036 | 0.304 ± 0.018 | 0.582 ± 0.021
16 | RFHFAAPPHRPS | 0.879 ± 0.01 | 0.703 ± 0.024 | 0.744 ± 0.0012 | 0.679 ± 0.027 | 0.748 ± 0.0096 | 0.694 ± 0.062 | 0.668 ± 0.034 | 0.7583 ± 0.0022
17 | ERFILVGMFGSW | 0.532 ± 0.048 | 0.702 ± 0.036 | 0.717 ± 0.015 | 0.519 ± 0.017 | 0.708 ± 0.0095 | 0.532 ± 0.026 | 0.529 ± 0.027 | 0.701 ± 0.022
18 | FVEFCFWCFWVV | 0.426 ± 0.005 | 0.481 ± 0.008 | 0.575 ± 0.032 | 0.407 ± 0.012 | 0.578 ± 0.026 | 0.351 ± 0.022 | 0.361 ± 0.026 | 0.499 ± 0.0043
19 | CIFLLMAILSLA | 0.411 ± 0.075 | 0.48 ± 0.055 | 0.558 ± 0.0093 | 0.363 ± 0.029 | 0.534 ± 0.023 | 0.2341 ± 0.00064 | 0.27 ± 0.025 | 0.427 ± 0.0079
20 | VRRGAVWCCLCG | 0.474 ± 0.011 | 0.666 ± 0.0079 | 0.73 ± 0.0094 | 0.623 ± 0.012 | 0.748 ± 0.004 | 0.368 ± 0.017 | 0.405 ± 0.014 | 0.633 ± 0.0059

Row | Sequence | protein stability index [1] | protein stability index [2, 3] | protein stability index [2, 4] | protein stability index [2, 5] | protein stability index [2, 6] | protein stability index [2, 7] | protein stability index [2, 8] | protein stability index [2, 9]
21 | RTKIKKKIMKNI | 0.515 ± 0.062 | 0.621 ± 0.051 | 0.718 ± 0.032 | 0.667 ± 0.023 | 0.716 ± 0.029 | 0.473 ± 0.052 | 0.532 ± 0.016 | 0.651 ± 0.037
22 | PPPLPPPSPSRP | 0.421 ± 0.0055 | 0.66 ± 0.024 | 0.7072 ± 0.0012 | 0.677 ± 0.02 | 0.7025 ± 0.0061 | 0.695 ± 0.026 | 0.6727 ± 0.0031 | 0.68331 ± 0.00024
23 | YGAGDLTKYFIV | 0.106 ± 0.016 | 0.637 ± 0.037 | 0.684 ± 0.046 | 0.607 ± 0.0086 | 0.726 ± 0.039 | 0.114 ± 0.0065 | 0.122 ± 0.028 | 0.174 ± 0.034
24 | VNFVLTLYPYLV | 0.378 ± 0.014 | 0.512 ± 0.024 | 0.577 ± 0.019 | 0.507 ± 0.024 | 0.603 ± 0.02 | 0.275 ± 0.016 | 0.278 ± 0.02 | 0.4472 ± 0.00073
25 | RAEASFFLPKVG | 0.435 ± 0.07 | 0.675 ± 0.046 | 0.711 ± 0.0076 | 0.668 ± 0.033 | 0.732 ± 0.016 | 0.41 ± 0.013 | 0.446 ± 0.01 | 0.6398 ± 0.0037
26 | VTWNFIVYVCCF | 0.283 ± 0.011 | 0.164 ± 0.0058 | 0.204 ± 0.0029 | 0.209 ± 0.016 | 0.25776 ± 1.6e-05 | 0.189 ± 0.017 | 0.19 ± 0.014 | 0.219 ± 0.0045
27 | APPFPSLSSFAP | 0.717 ± 0.018 | 0.679 ± 0.039 | 0.744 ± 0.038 | 0.7 ± 0.016 | 0.737 ± 0.03 | 0.693 ± 0.032 | 0.706 ± 0.04 | 0.718 ± 0.026
28 | TRPHPLRRVFIF | 0.293 ± 0.026 | 0.669 ± 0.034 | 0.725 ± 0.013 | 0.643 ± 0.0072 | 0.735 ± 0.013 | 0.226 ± 0.013 | 0.23 ± 0.038 | 0.433 ± 0.041
29 | SRFFSSSFYRLC | 0.324 ± 0.046 | 0.675 ± 0.036 | 0.7576 ± 0.0075 | 0.661 ± 0.012 | 0.777 ± 0.018 | 0.176 ± 0.0056 | 0.198 ± 0.036 | 0.485 ± 0.042
30 | SPGFVLLAVLVI | 0.347 ± 0.086 | 0.1636 ± 0.0011 | 0.235 ± 0.0088 | 0.231 ± 0.029 | 0.356 ± 0.016 | 0.194 ± 0.002 | 0.214 ± 0.025 | 0.323 ± 0.04
31 | FLFIFFFFLISF | 0.284 ± 0.018 | 0.208 ± 0.018 | 0.1806 ± 0.00038 | 0.256 ± 0.02 | 0.311 ± 0.027 | 0.344 ± 0.0055 | 0.242 ± 0.021 | 0.295 ± 0.011
32 | RILFSPSTFYLF | 0.397 ± 0.026 | 0.665 ± 0.048 | 0.761 ± 0.037 | 0.705 ± 0.03 | 0.7501 ± 0.0036 | 0.214 ± 0.024 | 0.265 ± 0.031 | 0.487 ± 0.024
33 | VFFRVLVAGCRQ | 0.522 ± 0.084 | 0.537 ± 0.04 | 0.618 ± 0.021 | 0.451 ± 0.022 | 0.5761 ± 0.0052 | 0.449 ± 0.0066 | 0.468 ± 0.0052 | 0.568 ± 0.028
34 | FDWLFFFVNFVV | 0.2459 ± 0.00064 | 0.407 ± 0.063 | 0.511 ± 0.033 | 0.475 ± 0.018 | 0.546 ± 0.029 | 0.174 ± 0.0022 | 0.163 ± 0.019 | 0.24 ± 0.0068
35 | WLGCVLIGWHVL | 0.27 ± 0.011 | 0.355 ± 0.0098 | 0.413 ± 0.0055 | 0.288 ± 0.048 | 0.481 ± 0.01 | 0.169 ± 0.0054 | 0.19 ± 0.017 | 0.364 ± 0.052
36 | WFYLLFVLFGLV | 0.426 ± 0.023 | 0.56 ± 0.026 | 0.614 ± 0.012 | 0.438 ± 0.033 | 0.542 ± 0.0065 | 0.409 ± 0.027 | 0.417 ± 0.017 | 0.51 ± 0.024
37 | LCVFFRCFFVGG | 0.514 ± 0.028 | 0.529 ± 0.046 | 0.588 ± 0.022 | 0.457 ± 0.015 | 0.608 ± 0.0094 | 0.433 ± 0.017 | 0.448 ± 0.018 | 0.5722 ± 0.0043
38 | INILVIWRKNHV | 0.129 ± 0.048 | 0.463 ± 0.00091 | 0.671 ± 0.041 | 0.5213 ± 0.0049 | 0.662 ± 0.014 | 0.0744 ± 0.0074 | 0.0776 ± 0.024 | 0.114 ± 0.021
39 | RHIRGLNLIKLI | 0.161 ± 0.044 | 0.316 ± 0.092 | 0.672 ± 0.034 | 0.652 ± 0.025 | 0.69 ± 0.034 | 0.0672 ± 0.022 | 0.0745 ± 0.011 | 0.0777 ± 0.0067

From the supplement of paper PMC10724198
